Experimental data as given in patent publication US20070178531A1 (BIOCHECK, published 2007).
Residue numbers refer to the chain shown, from its start.

What was measured:
Human Id3: Histidine [1] = molecular target: T1, Human Id3: Histidine (human, UniProt Q02535 1-119 at identity 1.00)); assay: ELISA, Ab 0.010 µg/ml
T1 construct: Fusion protein made in E. coli from vector pGW07; also called h-Id3: His; Human Id3 (coated wells); not shown: His tag
T1 chain: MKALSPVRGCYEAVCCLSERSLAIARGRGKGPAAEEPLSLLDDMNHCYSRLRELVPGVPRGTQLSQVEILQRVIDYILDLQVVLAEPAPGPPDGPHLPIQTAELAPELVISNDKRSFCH

Mouse Id1: Histidine [2] = molecular target: T2, Mouse Id1: Histidine (mouse, UniProt P20067-2 1-148, limits assumed); assay: ELISA, Ab 0.010 µg/ml
T2 construct: Fusion protein made in E. coli from vector pGW07; also called m-Id1-His; not shown: His tag
T2 sequence (looked up): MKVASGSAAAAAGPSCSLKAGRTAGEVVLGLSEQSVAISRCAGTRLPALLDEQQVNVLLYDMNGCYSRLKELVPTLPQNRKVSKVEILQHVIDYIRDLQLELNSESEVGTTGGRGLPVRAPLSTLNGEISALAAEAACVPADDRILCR

Mouse Id2: Histidine [3] = molecular target: T3, Mouse Id2: Histidine (mouse, UniProt P41136 1-134, limits assumed); assay: ELISA, Ab 0.010 µg/ml
T3 construct: Fusion protein made in E. coli from vector pGW07; also called m-Id2: His; not shown: His tag
T3 sequence (looked up): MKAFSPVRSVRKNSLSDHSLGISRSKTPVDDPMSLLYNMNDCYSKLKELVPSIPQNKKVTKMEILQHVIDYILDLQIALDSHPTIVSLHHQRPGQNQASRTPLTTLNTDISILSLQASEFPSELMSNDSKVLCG

Human Id1: Histidine [4] = molecular target: T4, Human Id1: Histidine (human, UniProt P41134 1-155, limits assumed); assay: ELISA, Ab 0.010 µg/ml
T4 construct: Fusion protein made in E. coli from vector pGW07; also called h-Id1: his; not shown: His tag
T4 sequence (looked up): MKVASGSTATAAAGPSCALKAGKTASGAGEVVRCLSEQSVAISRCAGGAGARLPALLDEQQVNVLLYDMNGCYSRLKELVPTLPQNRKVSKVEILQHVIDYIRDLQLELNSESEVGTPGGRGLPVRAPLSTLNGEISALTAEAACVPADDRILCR

Human Id2: Histidine [5] = molecular target: T5, Human Id2: Histidine (human, UniProt Q02363 1-134, limits assumed); assay: ELISA, Ab 0.010 µg/ml
T5 construct: Fusion protein made in E. coli from vector pGW07; also called h-Id2: His; not shown: His tag
T5 sequence (looked up): T3 sequence (looked up) with T60S, V131A

Mouse Id3: Histidine [6] = molecular target: T6, Mouse Id3: Histidine (mouse, UniProt P41133 1-119); assay: ELISA, Ab 0.010 µg/ml
T6 construct: Fusion protein made in E. coli from vector pGW07; also called m-Id3: His; Mouse Id3 (coated wells); not shown: His tag
T6 sequence: T1 chain with G31S, A33S, A34T, A105T, N112K

Human Id3: Histidine [7] = molecular target: T1, Human Id3: Histidine; assay: ELISA, Ab 0.250 µg/ml
Mouse Id1: Histidine [8] = molecular target: T2, Mouse Id1: Histidine; assay: ELISA, Ab 0.250 µg/ml
Mouse Id2: Histidine [9] = molecular target: T3, Mouse Id2: Histidine; assay: ELISA, Ab 0.250 µg/ml
Human Id1: Histidine [10] = molecular target: T4, Human Id1: Histidine; assay: ELISA, Ab 0.250 µg/ml
Human Id2: Histidine [11] = molecular target: T5, Human Id2: Histidine; assay: ELISA, Ab 0.250 µg/ml
Mouse Id3: Histidine [12] = molecular target: T6, Mouse Id3: Histidine; assay: ELISA, Ab 0.250 µg/ml
Human Id3: Histidine [13] = molecular target: T1, Human Id3: Histidine; assay: ELISA, Ab 0 µg/ml (blank)
Mouse Id1: Histidine [14] = molecular target: T2, Mouse Id1: Histidine; assay: ELISA, Ab 0 µg/ml (blank)
Human Id1: Histidine [15] = molecular target: T4, Human Id1: Histidine; assay: ELISA, Ab 0 µg/ml (blank)
Human Id2: Histidine [16] = molecular target: T5, Human Id2: Histidine; assay: ELISA, Ab 0 µg/ml (blank)
Mouse Id3: Histidine [17] = molecular target: T6, Mouse Id3: Histidine; assay: ELISA, Ab 0 µg/ml (blank)

B1: rabbit monoclonal anti-mouse/human Id3, clone #BCH-4/#6-1 (antibody, V domains shown)
VH: QSVEESGGRLVTPGTPLTLTCTASGFSLSNVYIHWVRQAPGKGLEWIGYISDGDTARYATWAKGRFTISKTSSTTVNLKMTSLTTEDTATYFCARQGFNIWGPGTLVTVSL
VL: AVLTQTPSPVSAAVGGTVSISCQSSQSVWNNNWLSWFQQKPGQPPKLLIYETSKLESGVPSRFKGSGSGTQFTLTISDVQCDDAATYYCLGGYWTTSDNNVFGGGTEVVVK
notes: Rabbit IgG from a rabbit hybridoma; also called m/h Id3 MoAb 6-1
A450 (Human Id3: Histidine [1]): 0.48 A450 | A450 (Mouse Id1: Histidine [2]): 0.079 A450 | A450 (Mouse Id2: Histidine [3]): 0.071 A450 | A450 (Human Id1: Histidine [4]): 0.078 A450 | A450 (Human Id2: Histidine [5]): 0.071 A450 | A450 (Mouse Id3: Histidine [6]): 0.53 A450 | A450 (Human Id3: Histidine [7]): 2.74 A450 | A450 (Mouse Id1: Histidine [8]): 0.058 A450 | A450 (Mouse Id2: Histidine [9]): 0.071 A450 | A450 (Human Id1: Histidine [10]): 0.061 A450 | A450 (Human Id2: Histidine [11]): 0.071 A450 | A450 (Mouse Id3: Histidine [12]): 3.13 A450 | A450 (Human Id3: Histidine [13]): 0.047 A450 | A450 (Mouse Id1: Histidine [14]): 0.061 A450 | A450 (Human Id1: Histidine [15]): 0.058 A450 | A450 (Human Id2: Histidine [16]): 0.064 A450 | A450 (Mouse Id3: Histidine [17]): 0.048 A450
